Experimental data reported in patent US20170247475A1 (Boehringer Ingelheim, published 2017).

T1: recombinant mouse VEGF164 (mouse, UniProt Q00731-2 27-190)
T1 construct: biotinylated in the mVEGFR2 AlphaScreen; also called rmVEGF164; mVEGF164
T1 sequence (looked up): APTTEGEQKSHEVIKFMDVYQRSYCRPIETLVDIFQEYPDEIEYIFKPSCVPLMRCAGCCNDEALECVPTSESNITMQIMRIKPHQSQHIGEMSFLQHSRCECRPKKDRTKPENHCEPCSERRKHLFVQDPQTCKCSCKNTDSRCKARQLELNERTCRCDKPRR

T2: human VEGF-B (human, UniProt P49765-2 22-188, limits assumed)
T2 construct: also called hVEGF-B
T2 sequence (looked up): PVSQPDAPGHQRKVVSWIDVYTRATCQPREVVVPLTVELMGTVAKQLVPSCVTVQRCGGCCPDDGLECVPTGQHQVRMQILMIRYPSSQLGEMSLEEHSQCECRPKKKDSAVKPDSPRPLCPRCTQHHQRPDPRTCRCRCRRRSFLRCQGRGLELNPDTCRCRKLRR

T3: human VEGF-C (human, UniProt P49767 103-227)
T3 construct: also called hVEGF-C
T3 sequence (looked up): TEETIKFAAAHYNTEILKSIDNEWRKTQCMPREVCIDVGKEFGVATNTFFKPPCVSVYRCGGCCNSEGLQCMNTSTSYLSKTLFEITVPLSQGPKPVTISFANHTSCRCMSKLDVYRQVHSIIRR

T4: human VEGF-D (human, UniProt O43915 93-201)
T4 construct: also called hVEGF-D
T4 sequence (looked up): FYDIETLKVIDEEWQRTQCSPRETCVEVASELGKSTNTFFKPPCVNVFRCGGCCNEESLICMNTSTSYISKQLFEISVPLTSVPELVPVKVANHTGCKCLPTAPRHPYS

T5: human PIGF (human, UniProt P49763-2 21-149, limits assumed)
T5 construct: also called hPIGF; PLGF
T5 sequence (looked up): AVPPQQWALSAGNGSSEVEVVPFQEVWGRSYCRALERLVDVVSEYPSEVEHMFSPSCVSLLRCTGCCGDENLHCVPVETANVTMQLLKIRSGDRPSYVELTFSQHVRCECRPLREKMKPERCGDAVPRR

T6: recombinant human VEGF121 (human, UniProt P15692-9 27-147)
T6 construct: also called rhVEGF121; hVEGF121
T6 sequence (looked up): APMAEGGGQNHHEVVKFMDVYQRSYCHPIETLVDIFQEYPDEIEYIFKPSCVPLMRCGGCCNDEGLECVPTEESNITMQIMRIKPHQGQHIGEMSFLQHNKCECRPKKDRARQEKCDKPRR


Assays:
[1] = molecular target: T7, recombinant human VEGF165 (human, UniProt P15692-4 27-191); assay: hVEGF165/hVEGFR2-Fc competition ELISA
T7 construct: also called hVEGF165; rhVEGF165

[2] = molecular target: T1, recombinant mouse VEGF164; assay: binding ELISA, coated rmVEGF164
Procedure: (§1) Cross-reactivity to mouse VEGF164 is determined using a binding ELISA. […] Wells are blocked with a casein solution (1% in PBS). […] A mouse VEGF164 reactive mAb is included as positive control.

human VEGF-B = molecular target: T2, human VEGF-B; assay: binding ELISA on coated VEGFB
Procedure: (§2) Binding to VEGFB, VEGFC, VEGFD and PIGF is assessed via a solid phase binding ELISA. In brief, VEGFB, VEGFC, VEGFD and PIGF (R&D Systems, Minneapolis, Minn., USA) are coated overnight at 4° C. at 1 μg/mL in a 96-well MaxiSorp plate (Nunc, Wiesbaden, Germany). Wells are blocked with a casein solution (1% in PBS). […] As positive controls serial dilutions of the appropriate receptors are taken along and detected with horseradish peroxidase (HRP)-conjugated goat anti-human IgG, Fc specific antibody (Jackson Immuno Research Laboratories Inc., West Grove, Pa., USA) and a subsequent enzymatic reaction in the presence of the substrate TMB (3,3′,5,5′-tetramentylbenzidine) (Pierce, Rockford, Ill., USA).

[3] = molecular target: T7, recombinant human VEGF165; assay: binding ELISA, coated rhVEGF165
[4] = molecular target: T7, recombinant human VEGF165; assay: SPR Biacore T100, hVEGF165 on chip, Two State Reaction model
Procedure: (§3) Samples are injected for 2 min and allowed to dissociate up to 20 min at a flow rate of 45 μI/min. In between sample injections, the chip surface is regenerated with 100 mM HCl. HBS-EP+(Hepes buffer pH7.4+EDTA) is used as running buffer. Binding curves are fitted using a Two State Reaction model by Biacore T100 Evaluation Software v2.0.1.
(§4) ^{(a)}KD = kd1/kₐ₁ * (kd2/(kd2 + kₐ₂)) ^{(b)}Curves are fitted using a Two State Reaction model by Biacore T100 Evaluation Software v2.0.1

[5] = molecular target: T7, recombinant human VEGF165; assay: VEGF/VEGFR1 competition AlphaScreen
Procedure: (§5) Finally, streptavidin donor beads (20 μg/ml) are added and after 1 hour of incubation in the dark, fluorescence is measured on the Envision microplate reader.

[6] = molecular target: T7, recombinant human VEGF165; assay: VEGF/VEGFR2 competition AlphaScreen
Procedure: as §5

[7] = molecular target: T7, recombinant human VEGF165; assay: SPR Biacore T100, Two State Reaction model; KD = kd1/ka1 * (kd2/(kd2 + ka2))
Procedure: as §3, §4

[8] = molecular target: T7, recombinant human VEGF165; assay: hVEGF165/hVEGFR2-Fc competition AlphaScreen
Procedure: as §5

VEGF [9] = assay: cell-based or functional assay
human VEGF-C = molecular target: T3, human VEGF-C; assay: binding ELISA on coated VEGFC
Procedure: as §2

human VEGF-D = molecular target: T4, human VEGF-D; assay: binding ELISA on coated VEGF D
Procedure: as §2

[10] = molecular target: T7, recombinant human VEGF165; assay: ka1; SPR Biacore T100, hVEGF165 on chip, Two State Reaction model
Procedure: as §3, §4

VEGF [11] = assay: cell-based or functional assay; remark: listed apart in the source
[12] = molecular target: T7, recombinant human VEGF165; assay: VEGF165/hVEGFR1-Fc competition AlphaScreen
Procedure: as §5

[13] = molecular target: T7, recombinant human VEGF165; assay: kd1; SPR Biacore T100, hVEGF165 on chip, Two State Reaction model
Procedure: as §3, §4

[14] = molecular target: T7, recombinant human VEGF165; assay: VEGF165/hVEGFR1-Fc competition ELISA
human PIGF = molecular target: T5, human PIGF; assay: binding ELISA on coated PIGF
Procedure: as §2

[15] = molecular target: T1, recombinant mouse VEGF164; assay: binding ELISA on coated mouse VEGF164
Procedure: as §1

[16] = molecular target: T6, recombinant human VEGF121; assay: binding ELISA, coated rhVEGF121
Procedure: Binding to recombinant human VEGF121 is assessed via a solid phase binding ELISA. Briefly, recombinant human VEGF121 (R&D Systems, Minneapolis, Minn., USA) is coated overnight at 4° C. at 1 μg/mL in a 96-well MaxiSorp plate (Nunc, Wiesbaden, Germany). Wells are blocked with a casein solution (1% in PBS).

| Binder | % inhibition [1] [%] | IC50 [1] [pM] | binding result (human VEGF-B) | EC50 [3] [pM] | ka2 [4] [s⁻¹] | kd2 [4] [s⁻¹] | % inhibition [5] [%] | IC50 [5] [pM] | IC50 [6] [pM] | Kd [7] [pM] | % inhibition [8] [%] | IC50 [8] [pM] | binding result (human VEGF-C) | binding result (human VEGF-D) | kon [10] [M⁻¹ s⁻¹] | % inhibition, VEGF HUVEC Erk phosphorylation assay (VEGF [11]) [%] | IC50 (nM), VEGF HUVEC Erk phosphorylation assay (VEGF [11]) [nM] | % inhibition [12] [%] | IC50 [12] [pM] | koff [13] [s⁻¹] | further results |
| --- | --- | --- | --- | --- | --- | --- | --- | --- | --- | --- | --- | --- | --- | --- | --- | --- | --- | --- | --- | --- | --- |
| VEGFBII021 (VHH, biparatopic bivalent VHH in one chain; also called VEGFBII23B04-40GS-5B05) EVQLVESGGGLVQTGDSLRLSCEVSGRTFSSYSMGWFRQAQGKEREFVVAISKGGYKYDSVSLEGRFTISKDNAKNTVYLQINSLKPEDTAVYYCASSRAYGSSRLRLADTYEYWGQGTQVTVSSGGGGSGGGGSGGGGSGGGGSGGGGSGGGGSGGGGSGGGGSEVQLVESGGGLVQPGGSLRLSCVASGIRFMSMAWYRQAPGKHRELVARISSGGTTAYVDSVKGRFTISRDNSKNTVYLQMNSLKAEDTAVYYCNTFSSRPNPWGAGTQVTVSS | 100 | 204 | no binding (tested: 5e-7 M) | 334 | 0.023 | 0.00019 | 100 | 16 | 9 | 70 | 100 | 7 | no binding (tested: 5e-7 M) | no binding (tested: 5e-7 M) | 1.2e+06 | 103 | 0.21 | 100 | 12 | 0.011 | EC50 [2]: 502 pM; % inhibition, VEGF HUVEC proliferation assay (VEGF [9]): 98%; IC50 (nM), VEGF HUVEC proliferation assay (VEGF [9]): 0.4 nM; % inhibition [14]: 97%; IC50 [14]: 254 pM; binding result (human PIGF): no binding (tested: 5e-7 M) |
| VEGFBII023 (VHH, biparatopic bivalent VHH in one chain; also called VEGFBII23B04-40GS-10E07; VEGFBI023) EVQLVESGGGLVQTGDSLRLSCEVSGRTFSSYSMGWFRQAQGKEREFVVAISKGGYKYDSVSLEGRFTISKDNAKNTVYLQINSLKPEDTAVYYCASSRAYGSSRLRLADTYEYWGQGTQVTVSSGGGGSGGGGSGGGGSGGGGSGGGGSGGGGSGGGGSGGGGSEVQLVESGGGLVQAGGSLRLSCAASGRTFSNYAMGWFRQAPGKERVLVADISSSGINTYVADAVKGRFTISRDNAKNTVYLQMNSLKPEDTAVYYCAASAWWYSQMARDNYRYWGQGTQVTVSS | 100 | 213 | no binding (tested: 5e-7 M) | 221 | 0.024 | 0.00027 | 91 | 44 | 38 | 690 | 100 | 46 | no binding (tested: 5e-7 M) | no binding (tested: 5e-7 M) | 300000 | 100 | 0.25 | 87 | 48 | 0.018 | binding result [15]: binds; binding result (human PIGF): no binding (tested: 5e-7 M) |
| VEGFBII025 (VHH, biparatopic bivalent VHH in one chain; also called VEGFBII10E07-40GS-23B04) EVQLVESGGGLVQAGGSLRLSCAASGRTFSNYAMGWFRQAPGKERVLVADISSSGINTYVADAVKGRFTISRDNAKNTVYLQMNSLKPEDTAVYYCAASAWWYSQMARDNYRYWGQGTQVTVSSGGGGSGGGGSGGGGSGGGGSGGGGSGGGGSGGGGSGGGGSEVQLVESGGGLVQTGDSLRLSCEVSGRTFSSYSMGWFRQAQGKEREFVVAISKGGYKYDSVSLEGRFTISKDNAKNTVYLQINSLKPEDTAVYYCASSRAYGSSRLRLADTYEYWGQGTQVTVSS | 100 | 577 | no binding (tested: 5e-7 M) | 668 | 0.018 | 0.00037 | 82 | 39 | 51 | 1100 | 100 | 51 | no binding (tested: 5e-7 M) | no binding (tested: 5e-7 M) | 330000 | 99 | 0.23 | 82 | 71 | 0.017 | EC50 [16]: 475 pM; binding result [15]: binds; binding result (human PIGF): no binding (tested: 5e-7 M) |
